Values quoted from earlier work in article PMC9927262.
Like-named read-outs stand apart in the source and are kept apart here.

Experiments:
[1] = target: Spike RBD RBD (SARS-CoV-2) (UniProt P0DTC2)
[2] = target: Spike RBD RBD (SARS-CoV-2) (UniProt P0DTC2); remark: listed apart in the source

Substance	Kd [1] [nM]	Kd [2] [nM]
etesevimab	4.1	
bamlanivimab		3.5
